Patent publication US20180066058A1 (published 2018)
Each block holds one binder with its values, some of them ahead of it.

Tests used:
[1] = biological target: T1, Human ICOS extracellular domain fused to human Fc (human, UniProt Q9Y6W8 21-140); experiment: SPR (ProteOn XPR36), human ICOS ECD-Fc captured, Fab analyte, pH 5.5, 37 C; poor fit to 1:1 model
T1 construct: Dimeric protein made in house from NCBI NP_036224.1; also called hICOS; hICOS Fc; not shown: human Fc region
T1 sequence: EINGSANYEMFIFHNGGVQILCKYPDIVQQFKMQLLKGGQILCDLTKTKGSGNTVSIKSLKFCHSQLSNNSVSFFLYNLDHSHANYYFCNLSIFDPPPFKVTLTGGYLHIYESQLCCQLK
Procedure: (§1) In addition, a comparison was performed of antibody:antigen binding affinity at different pH values. As before, the dimeric human ICOS protein, presented as the extracellular domain of ICOS fused to a human Fc region, was captured on the anti-human Fc capture surface created using the 3 antibody cocktail, immobilised on the GLC biosensor chip by primary amine coupling. SPR analysis of recombinantly expressed anti-ICOS Fabs was carried out on the ProteOn XPR36 Array system (Biorad). The Fab fragments were used as analyte to generate binding sensorgrams, which were double referenced with a buffer injection (i.e., 0 nM). The subsequent referenced sensorgrams were fitted to the 1:1 model inherent to the ProteOn analysis software. […] Data were fitted to the 1:1 model.

[2] = biological target: T1, Human ICOS extracellular domain fused …; experiment: SPR (ProteOn XPR36), Fc-tagged ICOS captured on anti-human IgG, Fab analyte, 25 C
Procedure: (§2) Fab affinities of the ICOS leads were generated by SPR using the ProteOn XPR3 6 (BioRad). An anti-human IgG capture surface was created on a GLC biosensor chip by primary amine coupling, immobilising three anti-human IgG antibodies (Jackson Labs 109-005-008, 109-006-008 and 309-006-008). […] Binding sensorgrams were double referenced using a buffer injection (i.e. 0 nM), and the data was fitted to the 1:1 model inherent to the ProteOn XPR36 analysis software. The assay was run at 25° C. and using HBS-EP as running buffer.

[3] = biological target: T1, Human ICOS extracellular domain fused …; experiment: SPR (ProteOn XPR36), human ICOS ECD-Fc captured, Fab analyte, pH 7.4, 37 C; poor fit to 1:1 model
Procedure: as §1

[4] = biological target: T2, Cynomolgus ICOS on activated cynomolgus T cells (cynomolgus, UniProt Q9Y6W8 21-195 (human entry)); experiment: flow cytometry, AF647 pre-labelled hIgG1 on activated cynomolgus pan T cells, donor 1
T2 construct: also called NHP ICOS
T2 chain: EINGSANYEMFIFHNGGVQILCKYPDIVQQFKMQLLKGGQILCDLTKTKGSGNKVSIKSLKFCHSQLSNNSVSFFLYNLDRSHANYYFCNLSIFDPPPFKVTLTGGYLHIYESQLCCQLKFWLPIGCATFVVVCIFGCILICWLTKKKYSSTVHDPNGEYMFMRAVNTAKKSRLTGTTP
Procedure: (§3) PBMC from whole blood of 2 Mauritian cynomolgus macaques (Wickham Laboratories) were isolated by gradient centrifugation and cultured for 3 days with CD2/CD3/CD28 MACSiBeads (Miltenyi) to induce ICOS expression on their surface. […] Cells were also labelled with V450-CD3 to assess staining on T-cell subsets. Stained cells were run on Attune (Thermofisher) and staining intensity was presented as mean fluorescence intensity (MFI). EC50 was determined using GraphPad Prism.

Human ICOS on cells [5] = biological target: T3, Human ICOS on cells (human, UniProt Q9Y6W8 21-199); experiment: cell-based or functional assay
T3 sequence: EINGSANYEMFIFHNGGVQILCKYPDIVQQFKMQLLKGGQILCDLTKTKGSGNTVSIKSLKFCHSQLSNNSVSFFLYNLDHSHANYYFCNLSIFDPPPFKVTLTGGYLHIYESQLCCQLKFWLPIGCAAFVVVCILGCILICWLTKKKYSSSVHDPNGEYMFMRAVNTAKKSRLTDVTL

[6] = biological target: T4, mouse ICOS-mFc (Chimerigen) (mouse, UniProt Q9WVS0 21-141, limits assumed); experiment: HTRF neutralisation of Alexa 647 mouse B7-H2 binding to mouse ICOS-mFc; human IgG1; mean, n = 3
T4 construct: also called mouse ICOS receptor; mouse ICOS Receptor; not shown: mouse Fc of the bought construct
T4 sequence: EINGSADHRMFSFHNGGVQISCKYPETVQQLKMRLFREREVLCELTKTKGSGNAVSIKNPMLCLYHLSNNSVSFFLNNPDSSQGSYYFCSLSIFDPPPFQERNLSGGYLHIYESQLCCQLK
Procedure: (§4) 5 μl of ICOS receptor (human ICOS-mFc, 20 nM, 5 nM final or mouse ICOS-mFc 4 nM, 1 nM final (Chimerigen)) was added to required wells. Plate was incubated for 1 hr at room temperature (RT).
(§5) Finally, 5 μl of anti-mouse IgG donor mAb (Southern Biotech) labelled with europium cryptate (Cis Bio), 40 nM, 10 nM final was added to each well and the assay was left in the dark at RT to incubate for a further 2 hours. After incubation, assay was read on Envision plate reader (Perkin Elmer) using a standard HTRF protocol. […] Titration curves and IC50 values [M] were plotted using Graphpad (Prism). IC50 values were calculated by first transforming the data using equation X=Log(X). The transformed data was then fitted using nonlinear regression, using fitting algorithm, log (inhibitor) vs. response—variable slope (four parameters).

Human ICOS on cells [7] = biological target: T3, Human ICOS on cells; experiment: flow cytometry on activated human pan T cells (row Human), first donor column
[8] = biological target: T5, human ICOS-mFc (Chimerigen) (human, UniProt Q9Y6W8 21-140); experiment: HTRF neutralisation of Alexa 647 human B7-H2 binding to human ICOS-mFc; human IgG1; mean, n = 4
T5 construct: also called human ICOS receptor; human ICOS Receptor; not shown: mouse Fc of the bought construct
T5 sequence: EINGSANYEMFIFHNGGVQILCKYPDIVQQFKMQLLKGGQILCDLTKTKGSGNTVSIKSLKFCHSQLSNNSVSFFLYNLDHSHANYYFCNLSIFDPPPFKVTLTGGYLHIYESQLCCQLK
Procedure: as §4, §5

[9] = biological target: T2, Cynomolgus ICOS on activated cynomolgus …; experiment: flow cytometry, AF647 pre-labelled hIgG1 on activated cynomolgus pan T cells, donor 2
Procedure: as §3

Human ICOS on cells [10] = biological target: T3, Human ICOS on cells; experiment: cell-based or functional assay; remark: listed apart in the source
Human ICOS on cells [11] = biological target: T3, Human ICOS on cells; experiment: flow cytometry on activated human pan T cells (row Human), second donor column
Human ICOS on cells [12] = biological target: T3, Human ICOS on cells; experiment: flow cytometry on activated primary human pan T cells; indirect binding assay; reference STIM001 hIgG1
Procedure: (§6) Pan T-cells (CD3 cells) were isolated and cultured for 3 days with CD3/CD28 dynabeads (Thermofisher) to induce ICOS expression on their surface. […] Stained cells were ran on the Attune and staining intensity was presented as Mean of fluorescence intensity (MFI). EC50 was determined using GraphPad Prism.

Human ICOS on cells [13] = biological target: T3, Human ICOS on cells; experiment: flow cytometry on activated primary human pan T cells; naked hIgG1 detected with AF647 goat anti-human Fc
Procedure: as §6

[14] = biological target: T1, Human ICOS extracellular domain fused …; experiment: SPR (ProteOn XPR36), human ICOS ECD-Fc captured, Fab analyte, pH 7.4, 37 C
Procedure: as §1

[15] = biological target: T1, Human ICOS extracellular domain fused …; experiment: SPR (ProteOn XPR36), human ICOS ECD-Fc captured, Fab analyte, pH 7.6, 25 C
[16] = biological target: T1, Human ICOS extracellular domain fused …; experiment: SPR (ProteOn XPR36), human ICOS ECD-Fc captured, Fab analyte, pH 5.5, 37 C
Procedure: as §1

[17] = biological target: T6, Mouse ICOS extracellular domain fused to human Fc (mouse, UniProt Q9WVS0 21-141); experiment: SPR (ProteOn XPR36), Fc-tagged ICOS captured on anti-human IgG, Fab analyte, 25 C
T6 construct: Made in house from NCBI NP_059508.2; also called mICOS; mICOS Fc; not shown: human Fc region
T6 sequence: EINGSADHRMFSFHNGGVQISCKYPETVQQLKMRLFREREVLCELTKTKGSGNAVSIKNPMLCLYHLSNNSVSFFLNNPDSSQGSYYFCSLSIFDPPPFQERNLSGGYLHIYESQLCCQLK
Procedure: as §2

[18] = biological target: T1, Human ICOS extracellular domain fused …; experiment: SPR (ProteOn XPR36), human ICOS ECD-Fc captured, Fab analyte, pH 5.5, 37 C (second run)
Procedure: as §1

[19] = biological target: T1, Human ICOS extracellular domain fused …; experiment: SPR (ProteOn XPR36), human ICOS ECD-Fc captured, Fab analyte, pH 7.6, 37 C
Procedure: as §1

Kd [1]: 4.17 nM
Kd [2]: 1070 nM
Kd [3]: 223 nM
B1: STIM002 Fab (Fab, V domains shown)
VH: QVQLVQSGGEVKKPGASVKVSCKASGYTFTSYGFSWVRQAPGQGLEWMGWISAYNGNTNYAQKLQGRVTMTTDTSTSTAYMELRSLRSDDTAVYYCARSTYFYGSGTLYGMDVWGQGTTVTVSS
VL: DIVMTQSPLSLPVTPGEPASISCRSSQSLLHSDGYNYLDWYLQKPGQSPQLLIYLGSTRASGFPDRFSGSGSGTDFTLKISRVEAEDVGVYYCMQALQTPLSFGQGTKLEIK
notes: Recombinantly expressed purified Fab

EC50 [4]: 4.58 nM
EC50 (Molar unit), NK primary cell ADCC assay on MJ cells, 2 hour time point, Donor 1 (Human ICOS on cells [5]): 0.00233 nM
EC50 (Molar unit), NK primary cell ADCC assay on MJ cells, 2 hour time point, Donor 2 (Human ICOS on cells [5]): 0.0358 nM
EC50 (Molar unit), NK primary cell ADCC assay on MJ cells, 2 hour time point, Donor 3 (Human ICOS on cells [5]): 0.101 nM
IC50 [6]: 0.1 nM
EC50 (Human ICOS on cells [7]): 2.29 nM
IC50 [8]: 1.3 nM
EC50 [9]: 4.83 nM
EC50 (Molar unit), NK primary cell ADCC assay on ICOS-transfected CCRF-CEM cells, 4 hour time point, Donor 4 (Human ICOS on cells [10]): ~0.003 nM
EC50 (Molar unit), NK primary cell ADCC assay on ICOS-transfected CCRF-CEM cells, 4 hour time point, Donor 5 (Human ICOS on cells [10]): 0.000895 nM
EC50 (Molar unit), NK primary cell ADCC assay on ICOS-transfected CCRF-CEM cells, 4 hour time point, Donor 6 (Human ICOS on cells [10]): 0.00103 nM
EC50 (Human ICOS on cells [11]): 0.895 nM
fold lower EC50 than STIM001 (Human ICOS on cells [12]): ~100 fold
EC50 (Human ICOS on cells [13]): 0.148 nM
B2: STIM003 human IgG1 (antibody, V domains shown)
VH: EVQLVESGGGVVRPGGSLRLSCVASGVTFDDYGMSWVRQAPGKGLEWVSGINWNGGDTDYSDSVKGRFTISRDNAKNSLYLQMNSLRAEDTALYYCARDFYGSGSYYHVPFDYWGQGILVTVSS
VL: EIVLTQSPGTLSLSPGERATLSCRASQSVSRSYLAWYQQKRGQAPRLLIYGASSRATGIPDRFSGDGSGTDFTLSISRLEPEDFAVYYCHQYDMSPFTFGPGTKVDIKR
notes: Human IgG1 format; Conjugated with AF647 in the direct staining assays, coupled to beads or plates in the MJ cell assays; also called STIM003 (hIgG1); STIM003 hIgG1

Kd [14]: 1.71 nM
Kd [15]: 1.31 nM
Kd [16]: 1.02 nM
Kd [2]: 1.3 nM
Kd [17]: 0.4 nM
Kd [18]: 1.15 nM
Kd [19]: 1.98 nM
B3: STIM003 Fab (Fab, V domains shown)
VH: EVQLVESGGGVVRPGGSLRLSCVASGVTFDDYGMSWVRQAPGKGLEWVSGINWNGGDTDYSDSVKGRFTISRDNAKNSLYLQMNSLRAEDTALYYCARDFYGSGSYYHVPFDYWGQGILVTVSS
VL: EIVLTQSPGTLSLSPGERATLSCRASQSVSRSYLAWYQQKRGQAPRLLIYGASSRATGIPDRFSGDGSGTDFTLSISRLEPEDFAVYYCHQYDMSPFTFGPGTKVDIK
notes: as for B1
